# According to the DeepSol protein solubility set:
# Experiment: soluble on expression in E. coli; label from the status in PepcDB or PDB records
row,Sequence,soluble on expression in E. coli
1,MGMELILREWMGKEKDYSISYSTYMNLVLYTEGHGYYMKEREKIGRQGDFFTSSNVSSVFAKTFAKLFIRLVENGEVASNICEVGGGTGKFAYDVLQEWKQLSPNTFINLNYSMIEVSPFHRKLQQEQLGSFSNVSYYTSYSEMGDSFEGILFSNELFDAFPVEVIEKRNGILYEVRITYTEEGNLSEVCRPLNKRIGRYLLKYNIHIAEGQRFEVPIVMEEYIKEISKWFQKGICITVDYGYTKEEWMHPAHREGSLRGYYQHKLMRNPLAHPGEMDLTTHVHWDELKEMFSMQGMSAVWHKKQSEFLLAAGILEQLTSHQDTNPFSETQKQNRAVRSMILNGGVGSSFDVVIHTKDMQHLHLDQYVTILEHHHHHH,soluble
2,MGNARGFLDFKRMDFKKIAPKERILNYKEFTIPLDKKEQEVQGGRCMDCGVAFCHTGVMSEGKDVGCPLNNLIPEWNDLVYRSLWKEAYERLDLTNPFPEFTGRVCPAPCEDSCVCAINGVSVSIKNNELSIIENAFKENLVRVNKPKQYNGKKIAVIGSGPAGLACANTLNSLGYKVSVFERSDKIGGLLMYGIPDMKLDKSIVQRRVDLLKKSGIEFKVNENIDSKDKVSKLLKEFDALVLCTGASKPIDLDIEGRKLKGVEFALDFLTQNTKTLLKTGKGADMAKGKNVLVIGSGDTSVDCIAVATRQGAKSIVRFERSPKRPLQRSQNNPWPLKADIFTTDYGLEEAIAVYGKDPREYQKMTKKFLGKTHVEGVEANDLKREFKEGKAINVEISNSKKTYKADLVLLAMGFSGCEEAISKNFGVKLDEKNNISTENFQTTHKKIFACGDARKGQSLVVWAIKDGIECALSLHQNLAKLEHHHHHH,not soluble
3,MGNKITVEVTVYAAIEKVWKYWNEPAHIMKWCQASPEWHVPAAQNDLKAGGTFTTTMAAKDGSMSFDFGGVYDQVKTNDLIEYTIGDGRKVRIVFTHTGDTTNIVESFDPEETNPRELQQSGWQAILNSFKSYTENNLEHHHHHH,soluble
4,MGNVMEGKSVEELSSTECHQWYKKFMTECPSGQLTLYEFRQFFGLKNLSPSASQYVEQMFETFDFNKDGYIDFMEYVAALSLVLKGKVEQKLRWYFKLYDVDGNGCIDRDELLTIIQAIRAINPCSDTTMTAEEFTDTVFSKIDVNGDGELSLEEFIEGVQKDQMLLDTLTRSLDLTRIVRRLQNGEQDEEGADEAAEAAG,not soluble
5,MGPIKTIKKKKRAEKKVDRNVLLAATAAATSASAAAALNNNDDDDDSSSQSLDWWDGFSRRIYGGSTDPKTFESVFKISRKTFDYICSLVKADFTAKPANFSDSNGNPLSLNDRVAVALRRLGSGESLSVIGETFGMNQSTVSQITWRFVESMEERAIHHLSWPSKLDEIKSKFEKISGLPNCCGAIDITHIVMNLPAVEPSNKVWLDGEKNFSMTLQAVVDPDMRFLDVIAGWPGSLNDDVVLKNSGFYKLVEKGKRLNGEKLPLSERTELREYIVGDSGFPLLPWLLTPYQGKPTSLPQTEFNKRHSEATKAAQMALSKLKDRWRIINGVMWMPDRNRLPRIIFVCCLLHNIIIDMEDQTLDDQPLSQQHDMNYRQRSCKLADEASSVLRDELSDQLCGKNSSA,soluble
6,MGPSRWPRGGGRLLGRLYLVVTPRPGWSLEATLDRTERALAGGVEVVQLRAKDWEARPTLALGERMLALARRYGVPFFLNDRPDLAALLGADGVHLGQNDLTPEEARRFFAGMVGRSTHAPEQALRALEEGVDYLSVGPVWETPTKPGRPAAGLAYVRWAAENLGEKPWYAIGGIDLGNLDQVLEAGARRIVVVRAILDAPDPERAARALRERLYGVA,soluble
7,MGQGNDTSEVMLLDTGWEFSQSGTEKWMPATVPGTVHQDLISHELLPNPFYGMNEKKIQWVENEDWEYRTSFIVSEEQLNRDGIQLIFEGLDTYADVYLNGSLLLKADNMFVGYTLPVKSVLRKGENHLYIYFHSPIRQTLPQYASNGFNYPADNDHHEKHLSVFSRKAPYSYGWDWGIRMVTSGVWRPVTLRFYDIATISDYYVRQLSLTDENARLSNELIVNQIVPQKIPAEVRVNVSLNGTTVTEVKQQVTLQPGINHITLPAEVTNPVRWMPNGWGTPTLYDFSAQIACGDRIVAEQSHRIGLRTIRVVNEKDKDGESFYFEVNGIPMFAKGANYIPQDALLPNVTTERYQTLFRDMKEANMNMVRIWGGGTYENNLFYDLADENGILVWQDFMFACTPYPSDPTFLKRVEAEAVYNIRRLRNHASLAMWCGNNEILEALKYWGFEKKFTPEVYQGLMHGYDKLFRELLPSTVKEFDSDRFYVHSSPYLANWGRPESWGTGDSHNWGVWYGKKPFESLDTDLPRFMSEFGFQSFPEMKTIAAFAAPEDYQIESEVMNAHQKSSIGNSLIRTYMERDYIIPESFEDFVYVGLVLQGQGMRHGLEAHRRNRPYCMGTLYWQLNDSWPVVSWSSIDYYGNWKALHYQAKRAFAPVLINPIQQNDSLSVYLISDRLDTMEQMTLEMKVVDFDGKTLGKKIQVHSLEVPANTSKCVYRAKLDGWLTPEDCRRSFLKLILKDKSGHQVAESVHFFRKTKDLQLPPTSVSYQMKQTDGKCELTLFSSMLAKDIFIETPLQGARYSDNFFDLLPGERKKVIITSPRIKKGEELPVNIKHIRETYKEHHHHHH,soluble
8,MGQPIITRDAGRYFLTDRIRHEVDWWNTPQARGEEPPPVQKPVAPGAMVIPLPPPATWGIPPCSLADGIARRESRRRFRAVPLTPEELAFLLWATQGVRARLNEAAVLRTVPSAGCRHPFETYLAILSVTGIEPAVYRYLPLDHALVLEREVPDLAATVTAAAHGQRFAGEAAVTFVWTAIPARTEWRYAEASYKVIALDAGHVCQNLYLACEAIGAGTCAIAAYRQALADELLGVDGREEFTVYLAPVGKV,not soluble
9,MGQSEPIVLVIFTNKDNKSDKPNDKLISETAKSVMKEFAAGSKNAAKELNDLEKKYNAHIGVYALDTKSGKEVKFNSDKRFAYASTSKAINSAILLEQVPYNKLNKKVHINKDDIVAYSPILEKYVGKDITLKALIEASMTYSDNTANNKIIKEIGGIKKVKQRLKELGDKVTNPVRYEIELNYYSPKSKKDTSTPAAFGKTLNKLIANGKLSKENKKFLLDLMLNNKSGDTLIKDGVPKDYKVADKSGQAITYASRNDVAFVYPK,soluble
10,MGREMMELNENRALAGGRTGSLRNIKRPLAITEAERQAVRDINLAHLDITSIDFDLFYLRENMELPLDAAAAVAYRLIVGTGLPQKLRCRDDTLLNFILQCRKKYRNVPYHNFYHVVDVCQTIYTFLYKGAVCEKLTELDCFVLLVTALVHDLDHMGLNNSFYLKTDSPLGILSSASGNASVLEVHHCNLAVEILSDPDSDVFEGLDAADRTLAYRSMIDCVLATDMAKHNELLNLFLAAMEKPYQIGDVASRQMMMDVIVKAGDVSNVTKPFDISRLWAMAVTEEFYRQGDMEKEKGVEVLPMFDRSKNTELAKGQIGFIDFVAGPFFKKIVSASLTGMQWTVERVESNRLEWQRTLDVKAAGDGNK,soluble
11,MGRKISVIIPTHYRNDLLPTAIESVARQDYEPVELIVVDDSGEGYAEPVLSEYDEVIDRPIIKEENEGWQAAYTTGIEQSTGEYIQFLDDDDYLYETKLKKTANVLDQNPEVGVSYCGVVRGDEGDFYPKQEVSGHFLEPALRFQTFPMWTGSMLMEREVLCDCLPMAGMGEEDDLDIELGDTDLKIELAKRTKADYVDECLTFYRQEGNKLWTGKRRFKKILQNIRHQKDIYNQYPEIRRDLLAEWYERQGRNYLNEQIWSAQAIQCFIKSAYYERKQKFPRIIETLAAILGRPGVMSAVRVKRTLLDGLEHHHHHH,not soluble
12,MGRVDGLDKFKGLFDALEPKSEGQRELKEALLSDVDLVGVFGPTGTGKSLFSIVYGVSMTAEGRFRRVVLARPVIDVVTGRELTVMTDAQSYRRLAAEYLMDILSGFLGEERVREILSSDSLVLVDPHFLRGRTFDNSVIIVDDSQSMPPEAIVEIITRLGTGSKLIVIGDPVFQRTSEPGLDGASMAREILSNEPTAEVVDLGLKDIVRPGAKRGVKMLMELLMRRRTLNQAEKEVIEAARMHSPDADIITAVDLQDAKRKWGIESDHVPDVLVVVKEGHLGRFIGRGGERIEKIEGETGLRIRAIEHTLDLKEIVRAIHPVSWIHKHVIDFDFAGPQLKIKVSKEHMGPMLGQKGAHIRFLDEIVRKLLGVGVFVEEVEERRGRRRRR,not soluble
13,MGRYKDETPAVRVYTVCDESRYMIVRNVPALGCGDDLMRLFMTYGEVEEFAKRKLDESSFLGNRLQISYAPEYENVNDTKDKLESRRKEVLARLNPQKEKSTSQVTKLAGPALTQTDNVSSQRREMEYQFHRGNAPVTRVSSDQEYFASSSMNQTVKTVREKLNKTREENISSLSHCKQIEESGNQKRLQPSSQTQPEESGNQKRLQPSSQIQPDLKRTRVDNRRRI,not soluble
14,MGSDKIHHHHHHAADWQLEKVVELSRHGIRPPTAGNREAIEAATGRPWTEWTTHDGELTGHGYAAVVNKGRAEGQHYRQLGLLQAGCPTAESIYVRASPLQRTRATAQALVDGAFPGCGVAIHYVSGDADPLFQTDKFAATQTDPARQLAAVKEKAGDLAQRRQALAPTIQLLKQAVCQADKSCPIFDTPWQVEQSKSGKTTISGLSVMANMVETLRLGWSENLPLSQLAWGKITQARQITALLPLLTENYDLSNDVLYTAQKRGSVLLNAMLDGVKPEANPNVRWLLLVAHDTNIAMVRTLMNFSWQLPGYSRGNIPPGSSLVLERWRNAKSGERYLRVYFQAQGLDDLRRLQTPDAQHPMLRQEWHQPGCRQTDVGTLCPFQAAITALGQRIDRSSAPAVAMVLP,not soluble
15,MGSDKIHHHHHHAAPGDLQEKLAALKGISGIEKLQSDYYPEKYVVRITQQVDPKDPAAGTFTQRVIVGHVGYDRPTIIVTEGYGAAYALNPKYQEELSKLLNANLVFVEYRYFLESTPEPKNWDYLTAENSAYDLHNVRNTFKQIYPGKWISTGISKGGQTTMLYRAFFPDDVDFSVPYVGPLCKGVEDGRHEPFLRKVGTKAEREKIQDFQLEVLKRKSDMLPLLESYCKNKNLTFRIPMPEVLDYCVLEYSFALWQWGTSVSTIPSKSADDQALFDHLMEISGPDYFAENQPNISFFVQAARELGYYGYDVKPFKKYLTIDSAHGYLNRIMLPEELVGKVDFRPALYHKIYNFLKDNDPKMIFIYGEIDPWSAAMVPAFKGKKNEQIYIQPRGSHRARIGNMPEDMKERILTQMNKWLAE,not soluble
16,MGSDKIHHHHHHAEEKNLSEQWPVVASYQWAGQDSVVVCDLSLLKDTVDLPFSFFLKDFQIIKLDNRDEAMVGENNLCVSENYILVYGSVYELHPCRLFTKKGEFVTNIGAIGQGPGEYRAVYKAEIDEKHNCIYLMPFANSNAIYVYDLAGKPLRSIPLHQPVSKAVFKVDADKRELTVGALPFTGYPFVAWVQDFEGHLLDSVPAARHLSVLPDYSNEVMYGANTEVFDLYISTFFELRPDTLYHYIRSESRLKPRFTLNIGDRKRSITTFYELPQAYVGRLMVEEQVGDGMWETKSPSNFIVDKASLRGTFFRVINDFAGGMPDRLWTPWSLRNKQYIRLVEPGVLKAEIESYLSSTDGRKGKNRKKLQELCESIGEEDNSYVIYAKQKGVQ,not soluble
17,MGSDKIHHHHHHAENNDDCFRGVPLQVKLPAGILSETMQDINIYVFDGSDRLLDILPIRSLEPVILSYPGIPSLHCIAWGNTQDGTMYVSPLKTGDPLSAGFISLKPSAVTRAQKSIFISPTDLFYGELNVDNTSTSNRIEEKEMSVSRMVASMNITIRGLELLSQSNEGVYSIVVHETASRVDFEGRYGGDPASYAFSPRFEAGKDYIIPPFNLFPTTVGSGISIDIYRNGSLLRSISTDSGNQPILPVVGKTLNVLLNFRLDVDVELALTGWGEEYIWKEYN,not soluble
18,MGSDKIHHHHHHAIRANVMASNVDSLYSKVDTLSEQSKKNNVVREEFDYSALSFYVENFAKEYLNYNSKASDEAKKARIDRLSKYLSLDVKDVDETENLQGNVLRTFKNTSLSRIEKMEDCYLVYLNVNYELEKDKKTENVTQNMVLPIQVKDNLFSIVGRPYFVASSLPQGKTVSLKQTENSIDVDGKEKQSIEKFLKMFFTKYSVGNKQELMLLMKNPTTTAGQDSFVSIDSGDMKFFDTKQKGVTGVQVSVTFSDKTTKLTHTEDFSLWLSKTENSYFINTMKHYFTEKEGND,not soluble
